# Experimental data published in article PMC6572678, “Bulged and Canonical G-Quadruplex Conformations Determine NDPK Binding Specificity”.
# T1: ZmNDPK1 (nucleoside diphosphate kinase 1, homolog of human NM23-H2) (Zea mays, UniProt B4FK49 1-149)
# T1 sequence: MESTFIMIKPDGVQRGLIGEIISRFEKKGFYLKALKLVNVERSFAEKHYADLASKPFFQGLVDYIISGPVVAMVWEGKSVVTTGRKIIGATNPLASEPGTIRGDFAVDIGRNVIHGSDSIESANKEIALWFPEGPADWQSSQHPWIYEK
# What was measured:
# [1] = biological target: T1, ZmNDPK1 (nucleoside diphosphate kinase …); test: competition; 100-fold excess vs hex4_A5U, 20 mM KCl; Filter binding: oligos annealed in 10 mM TBA phosphate pH 7.5 + 20 mM KCl, 60 min incubation; competition 1 nM FAM probe, 100 nM competitor, 5 nM protein. FRET: 10 mM TBA pH 7.5 + 100 mM KCl or LiCl, 1 h at 4 °C, 0-1000 nM protein; conditions: protein: recombinant, chain copies: 6
# [2] = biological target: T1, ZmNDPK1 (nucleoside diphosphate kinase …); test: filter binding; 20 mM KCl; Filter binding: oligos annealed in 10 mM TBA phosphate pH 7.5 + 20 mM KCl, 60 min incubation; competition 1 nM FAM probe, 100 nM competitor, 5 nM protein. FRET: 10 mM TBA pH 7.5 + 100 mM KCl or LiCl, 1 h at 4 °C, 0-1000 nM protein; conditions: protein: recombinant, chain copies: 6, label: 5' FAM (Kd)
Binder,"binding signal ([1]; bulged G4, parallel)","binding signal ([1]; bulged G4, anti-h by CD)",other results
GGGTTTTGAATTTATGAGGAGGGAGGG (structured_DNA) [A5UEH],81 % competition,,
GGGTTTTGAATTGAGGATGAGGTAGGG (structured_DNA) [A5UCG],,,"binding signal ([1]; bulged G4, mixed by CD): 36 % competition"
GGGTTTTGAATGGAGTATGAGGTAGGG (structured_DNA) [A5UBG],,50 % competition,
GGGTTTTGAATTGAGGATTAGGGAGGG (structured_DNA) [A5UCH],76 % competition,,
GGGTTTTGAATGGAGTATTAGGGAGGG (structured_DNA) [A5UBH],85 % competition,,
GGGTTTTGAAGGGATGAGGATTTAGGG (structured_DNA) [A5UAE],,,"Kd ([2]; bulged G4, anti-h by CD): 194 nM; binding signal ([1]; label: 5' FAM (Kd), bulged G4, anti-h by CD): 16 % competition"
GGGTTTTGAATTTAGGAGTAGGGAGGG (structured_DNA) [A5UDH],77 % competition,,
GGGTTTTGAAGGGATTAGGAGTTAGGG (structured_DNA) [A5UAF],,15 % competition,
GGGTTTTGAATTGAGGAGGAGTTAGGG (structured_DNA) [A5UCF],62 % competition,,
GGGTTTTGAAGGGATTATGAGGTAGGG (structured_DNA) [A5UAG],,40 % competition,
GGGTTTTGAAGGGATTATTAGGGAGGG (structured_DNA) [A5UAH (canonical; trim_AH)],,,"Kd ([2]; canonical G4, parallel): 14.4 nM; binding signal ([1]; label: 5' FAM (Kd), canonical G4, parallel): 77 % competition"
GGGTTTTGAAGGGAGGAGTATTTAGGG (structured_DNA) [A5UAD],73 % competition,,
GGGTTTTGAATGGAGTAGGAGTTAGGG (structured_DNA) [A5UBF],,23 % competition,
